In the Human Domainome abundance scans (Beltran et al. 2025):
± gives the uncertainty stated by the source.

Assay: abundance fitness (aPCA) (normalised: wild type 0, dead -1); higher = more abundant; growth selection in yeast, the domain comes from the species named
Conditions: Homo sapiens

Q: For “SAFB-like transcription modulator L34E, Q9NWH9”, which abundance fitness is on record?
A: Its abundance fitness is -0.594 ± 0.087.

Q: For “SAFB-like transcription modulator R37D, Q9NWH9”, which abundance fitness is on record?
A: Its abundance fitness is -0.621 ± 0.052.

Q: With “SAFB-like transcription modulator K31T, Q9NWH9” as the substance, how does the abundance fitness read?
A: Its abundance fitness is -0.143 ± 0.043.

Q: Which abundance fitness does the source give for “SAFB-like transcription modulator I49Y, Q9NWH9” here?
A: Its abundance fitness is -0.076 ± 0.089.

Q: With “SAFB-like transcription modulator V27S, Q9NWH9” as the substance, how does the abundance fitness read?
A: The abundance fitness was -0.417 ± 0.097.

Q: For “SAFB-like transcription modulator E33P, Q9NWH9”, which abundance fitness is on record?
A: The abundance fitness was -1.16 ± 0.2.

Q: With “BAG family molecular chaperone regulator 3 D20Q, O95817” as the substance, how does the abundance fitness read?
A: Its abundance fitness is -0.789 ± 0.33.

Q: With “BAG family molecular chaperone regulator 3 G58Q, O95817” as the substance, how does the abundance fitness read?
A: The abundance fitness was 0.85 ± 0.19.

Q: Which abundance fitness does the source give for “SAFB-like transcription modulator G61F, Q9NWH9” here?
A: Its abundance fitness is -0.474 ± 0.072.

Q: Which abundance fitness does the source give for “SAFB-like transcription modulator R51F, Q9NWH9” here?
A: Its abundance fitness is -1.21 ± 0.38.

Q: With “BAG family molecular chaperone regulator 3 P52M, O95817” as the substance, how does the abundance fitness read?
A: Its abundance fitness is -1.07 ± 0.46.

Q: For “BAG family molecular chaperone regulator 3 P32W, O95817”, which abundance fitness is on record?
A: Its abundance fitness is -0.316 ± 0.095.

Q: For “BAG family molecular chaperone regulator 3 D51A, O95817”, which abundance fitness is on record?
A: The abundance fitness was -0.682 ± 0.12.

Q: Which abundance fitness does the source give for “BAG family molecular chaperone regulator 3 P37T, O95817” here?
A: Its abundance fitness is 0.898 ± 0.11.

Q: Which abundance fitness does the source give for “SAFB-like transcription modulator D24T, Q9NWH9” here?
A: The abundance fitness was -0.157 ± 0.033.

Q: Which abundance fitness does the source give for “BAG family molecular chaperone regulator 3 Q11R, O95817” here?
A: The abundance fitness was 0.463 ± 0.11.

Q: Which abundance fitness does the source give for “SAFB-like transcription modulator S50I, Q9NWH9” here?
A: Its abundance fitness is -0.514 ± 0.29.

Q: With “BAG family molecular chaperone regulator 3 K29P, O95817” as the substance, how does the abundance fitness read?
A: Its abundance fitness is -0.598 ± 0.26.

Q: For “BAG family molecular chaperone regulator 3 G35N, O95817”, which abundance fitness is on record?
A: Its abundance fitness is 1.26 ± 0.22.

Q: Which abundance fitness does the source give for “BAG family molecular chaperone regulator 3 W49P, O95817” here?
A: The abundance fitness was -0.72 ± 0.25.

Q: Which abundance fitness does the source give for “BAG family molecular chaperone regulator 3 G25N, O95817” here?
A: Its abundance fitness is 0.081 ± 0.21.

Q: For “BAG family molecular chaperone regulator 3 P32M, O95817”, which abundance fitness is on record?
A: Its abundance fitness is -0.766 ± 0.23.

Q: For “SAFB-like transcription modulator T42D, Q9NWH9”, which abundance fitness is on record?
A: Its abundance fitness is 0.061 ± 0.092.

Q: For “BAG family molecular chaperone regulator 3 T34N, O95817”, which abundance fitness is on record?
A: Its abundance fitness is 0.336 ± 0.26.

Q: With “BAG family molecular chaperone regulator 3 W26R, O95817” as the substance, how does the abundance fitness read?
A: The abundance fitness was -0.228 ± 0.1.

Q: With “SAFB-like transcription modulator R26A, Q9NWH9” as the substance, how does the abundance fitness read?
A: The abundance fitness was -0.12 ± 0.1.

Q: Which abundance fitness does the source give for “BAG family molecular chaperone regulator 3 N50C, O95817” here?
A: Its abundance fitness is 0.032 ± 0.13.

Q: Which abundance fitness does the source give for “BAG family molecular chaperone regulator 3 V12D, O95817” here?
A: Its abundance fitness is 0.092 ± 0.16.

Q: Which abundance fitness does the source give for “SAFB-like transcription modulator I41L, Q9NWH9” here?
A: The abundance fitness was -0.087 ± 0.065.

Q: For “SAFB-like transcription modulator L34K, Q9NWH9”, which abundance fitness is on record?
A: Its abundance fitness is -0.864 ± 0.078.

Q: Which abundance fitness does the source give for “BAG family molecular chaperone regulator 3 K29A, O95817” here?
A: Its abundance fitness is -0.37 ± 0.12.

Q: For “BAG family molecular chaperone regulator 3 S56W, O95817”, which abundance fitness is on record?
A: The abundance fitness was -0.473 ± 0.13.

Q: With “BAG family molecular chaperone regulator 3 N43W, O95817” as the substance, how does the abundance fitness read?
A: Its abundance fitness is -0.415 ± 0.42.

Q: Which abundance fitness does the source give for “BAG family molecular chaperone regulator 3 P55L, O95817” here?
A: The abundance fitness was -0.133 ± 0.095.

Q: With “BAG family molecular chaperone regulator 3 N43K, O95817” as the substance, how does the abundance fitness read?
A: Its abundance fitness is -0.648 ± 0.24.

Q: For “BAG family molecular chaperone regulator 3 G35P, O95817”, which abundance fitness is on record?
A: Its abundance fitness is -0.237 ± 0.21.

Q: With “SAFB-like transcription modulator N38A, Q9NWH9” as the substance, how does the abundance fitness read?
A: Its abundance fitness is -0.296 ± 0.063.

Q: With “BAG family molecular chaperone regulator 3 R19A, O95817” as the substance, how does the abundance fitness read?
A: The abundance fitness was -0.071 ± 0.11.

Q: With “BAG family molecular chaperone regulator 3 E57V, O95817” as the substance, how does the abundance fitness read?
A: Its abundance fitness is -0.721 ± 0.21.

Q: Which abundance fitness does the source give for “SAFB-like transcription modulator K20Q, Q9NWH9” here?
A: Its abundance fitness is -0.193 ± 0.091.

Q: Which abundance fitness does the source give for “SAFB-like transcription modulator L30I, Q9NWH9” here?
A: The abundance fitness was -0.129 ± 0.067.

Q: Which abundance fitness does the source give for “SAFB-like transcription modulator L68G, Q9NWH9” here?
A: The abundance fitness was -0.165 ± 0.086.

Q: For “BAG family molecular chaperone regulator 3 G15Y, O95817”, which abundance fitness is on record?
A: The abundance fitness was 0.874 ± 0.075.

Q: With “BAG family molecular chaperone regulator 3 P32T, O95817” as the substance, how does the abundance fitness read?
A: Its abundance fitness is 0.423 ± 0.071.

Q: With “BAG family molecular chaperone regulator 3 Q11V, O95817” as the substance, how does the abundance fitness read?
A: Its abundance fitness is 0.619 ± 0.1.

Q: For “SAFB-like transcription modulator L48A, Q9NWH9”, which abundance fitness is on record?
A: The abundance fitness was -0.432 ± 0.053.

Q: With “BAG family molecular chaperone regulator 3 V40D, O95817” as the substance, how does the abundance fitness read?
A: The abundance fitness was -0.808 ± 0.42.

Q: Which abundance fitness does the source give for “BAG family molecular chaperone regulator 3 L22M, O95817” here?
A: The abundance fitness was 0.023 ± 0.17.

Q: For “BAG family molecular chaperone regulator 3 R45Y, O95817”, which abundance fitness is on record?
A: The abundance fitness was -0.229 ± 0.22.

Q: For “SAFB-like transcription modulator I28N, Q9NWH9”, which abundance fitness is on record?
A: Its abundance fitness is -0.59 ± 0.23.

Q: Which abundance fitness does the source give for “SAFB-like transcription modulator S50D, Q9NWH9” here?
A: Its abundance fitness is -0.109 ± 0.065.

Q: With “SAFB-like transcription modulator K20C, Q9NWH9” as the substance, how does the abundance fitness read?
A: Its abundance fitness is -0.115 ± 0.043.

Q: With “SAFB-like transcription modulator R51I, Q9NWH9” as the substance, how does the abundance fitness read?
A: The abundance fitness was -0.542 ± 0.22.

Q: Which abundance fitness does the source give for “BAG family molecular chaperone regulator 3 H42R, O95817” here?
A: Its abundance fitness is -0.448 ± 0.18.

Q: For “BAG family molecular chaperone regulator 3 E57Q, O95817”, which abundance fitness is on record?
A: The abundance fitness was -0.46 ± 0.33.

Q: For “BAG family molecular chaperone regulator 3 P55I, O95817”, which abundance fitness is on record?
A: Its abundance fitness is 0.135 ± 0.16.

Q: With “SAFB-like transcription modulator E33A, Q9NWH9” as the substance, how does the abundance fitness read?
A: The abundance fitness was -0.455 ± 0.068.

Q: For “BAG family molecular chaperone regulator 3 W49C, O95817”, which abundance fitness is on record?
A: The abundance fitness was -0.634 ± 0.29.

Q: Which abundance fitness does the source give for “SAFB-like transcription modulator I56D, Q9NWH9” here?
A: The abundance fitness was -0.286 ± 0.3.

Q: For “SAFB-like transcription modulator E67Q, Q9NWH9”, which abundance fitness is on record?
A: Its abundance fitness is -0.35 ± 0.1.

Q: With “SAFB-like transcription modulator L34S, Q9NWH9” as the substance, how does the abundance fitness read?
A: The abundance fitness was -0.778 ± 0.038.

Q: Which abundance fitness does the source give for “BAG family molecular chaperone regulator 3 S14A, O95817” here?
A: The abundance fitness was -0.285 ± 0.14.

Q: For “BAG family molecular chaperone regulator 3 G17K, O95817”, which abundance fitness is on record?
A: Its abundance fitness is 0.564 ± 0.093.

Q: For “BAG family molecular chaperone regulator 3 N43G, O95817”, which abundance fitness is on record?
A: Its abundance fitness is -0.531 ± 0.14.

Q: Which abundance fitness does the source give for “BAG family molecular chaperone regulator 3 V40R, O95817” here?
A: The abundance fitness was -0.637 ± 0.13.

Q: For “BAG family molecular chaperone regulator 3 P37Q, O95817”, which abundance fitness is on record?
A: Its abundance fitness is 0.24 ± 0.16.

Q: For “BAG family molecular chaperone regulator 3 R19Y, O95817”, which abundance fitness is on record?
A: The abundance fitness was -0.27 ± 0.094.

Q: Which abundance fitness does the source give for “SAFB-like transcription modulator N65Q, Q9NWH9” here?
A: The abundance fitness was -0.176 ± 0.076.

Q: With “SAFB-like transcription modulator I28F, Q9NWH9” as the substance, how does the abundance fitness read?
A: The abundance fitness was -0.417 ± 0.17.
